Experimental data: the supplement of paper PMC9170038

System: MS2 coat protein
Test: apparent KD of MS2 coat protein; designed switch direction (-1 OFF switch, 1 ON switch): -1; higher = weaker reporter binding
Method in brief: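 Three titration conditions were used: no input, 200 uM small-molecule ligand, and an oligonucleotide input. In each, SNAP-549-labelled MS2 coat protein was raised from 0.7 or 1.5 nM, doubling, to 3 µM over designed RNA switches transcribed on Illumina chips by stalled E. coli RNA polymerase. Curve fits of normalised cluster fluorescence gave values whose per-design median over clusters is the apparent KD.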

[1] = input ligand: microRNA oligo, concentration not stated
[2] = Eterna round: R95, input ligand: microRNA oligo, concentration not stated
[3] = Eterna round: R95, input ligand: FMN 200 uM
[4] = Eterna round: R95, input ligand: none

Sequence | apparent KD of MS2 coat protein (input ligand: FMN 200 uM) [nM] | apparent KD of MS2 coat protein [1] [nM] | apparent KD of MS2 coat protein (input ligand: none) [nM] | apparent KD of MS2 coat protein [2] [nM] | apparent KD of MS2 coat protein [3] [nM] | apparent KD of MS2 coat protein [4] [nM]
ACAUGAGGAUCACCCAUGUGACCACGAUGGCUGAUGUAGAGCUAGGAUAUGUGUGAAUAUCUAUCACAGAAGGAGCUUGACUGG [Deportation 52 - Jieux - Exclusion NG 3] (Eterna round: R96, puzzle: Exclusion NG 3) | 24.7 | 18.3 | 25.7 |  |  | 
AAUAACAGAGGAUAUACUAUUUUAUGUGUUUGUUAUUUUAAACAUGAGGAUCACCCAUGUAGAAGGCUGAUUAA [JMF 44] (Eterna round: R96, puzzle: Exclusion 2) | 47.7 | 34.3 | 42.7 |  |  | 
AAUAACAGAGGAUAUACUGUUUUAUGUGUUUAUUGUUUUGAACAUGAGGAUCACCCAUGUAGAAGGCUGAAUAA [JMF 25] (puzzle: Exclusion 2) |  |  |  | 20.1 |  | 
UAUUCUAGAUAGGAUAUACUUUUUUUUUUUUUCGUAGAAGGAUCUACAUGAGGAUCACCCAUGUUUUCAGCAGU [JR_E6_Sub012] (puzzle: Exclusion 6) |  |  |  | 48.3 |  | 
GUCAGCUCGUGAGGAUAUACAUCACUGCUUCGGCAGUGUAUUAAGAUCACAUGAGGAUCACCCAUGUAGAAGGCACGAGCUGAC [ENG2/2-A1] (Eterna round: R96, puzzle: Exclusion NG 2) | 309 | 34 | 29.6 |  |  | 
GCCGAUUAAGUCAGGAUAUACCUAUGGAUACAUAGGUAGAAGGGACAUGAGGAUCACCCAUGUUCCUCUACGGC [Fiskers BMX 4 - 16] (puzzle: Brourd's mod of Exclusion 4) |  |  |  | 13.6 |  | 
GAAGAGACAGGAUAUACAUGAGGAUCACCCAUGUGAGUAUGUUAGAGGCGGAGGAGAUGUAGAAGGGUCAAAGA [JR_Exclu3_Sub017] (puzzle: Exclusion 3) |  |  |  | 19.6 | 39.9 | 31.6
GGUUGGCGAGGAUAUACAUGAGGAUCACCCAUGUGAGAGAAAAAAGUGAGAACGAAAAGUAGAAGGCGCUGACG [salish99_ex3_r3_057] (puzzle: Exclusion 3) |  |  |  | 122 | 272 | 76.9
UAUUAGCAAGCAAGGUCCCACAUGAGGAUCACCCAUGUGCUCGUCUUAUAAGGUACUGUGACGAAAGUCACGGUACC [Sensor 3, v1 - 92] (puzzle: Sensor v3, turn-off variant 1) |  |  |  |  | 46.6 | 53.1
GGAACGACAGGAUAUACAUGAGGAUCACCCAUGUAAAGAAGAGUAAAAUGUGAAAGCGGUAGAAGGGUCAAGAA [AK-MS2ROC-r4-exclusion3-6] (Eterna round: R97, puzzle: Exclusion 3) | 42.3 |  | 43.9 |  |  | 
UGUUGUUACGUAGGAUAUUGCCAACAGGCAGUAGGAUAUGCGAAAGCAGAAGGACCGCCAACAGGCGAGAAGGACGGGUUAACA [pwkr exNG2 2xF7 2xFMN.11] (Eterna round: R96, puzzle: Exclusion NG 2) | 286 | 31.5 | 389 |  |  | 
GAUUAUGCGAGCUUUAGGGACAUGAGGAUCACCCAUGUUCGUCUUAUUAGUCUGGGUGCACUGACAUACCUAAAUCU [JMF 93] (puzzle: Sensor v3, turn-off variant 1) |  |  |  | 202 | 169 | 320
UCAAGUAUGUAGGAUAUCGAUGUCUACGGACAUCGAGAAGGACGUACAUGAGGAUCACCCAUGUAACUUGCAUG [Exclusion 6 - B - 10:d] (puzzle: Exclusion 6) |  |  |  | 79.4 | 37.2 | 108
UUGGUUAUCCAUGGAAGUAACAUGAGGAUCACCCAUGUAUGUCUAGUUUUUUGUUCGUCAUAGGCCUUUUGUUUGGA [JR_SV3TOV1_Sub022] (puzzle: Sensor v3, turn-off variant 1) |  |  |  | 27.9 | 26.8 | 30.9
CGGUGUAGAGGAUAUACGUGAAUUUUGUUAUUUUUUAAUUUACAUGAGGAUCACCCAUGUAGAAGGCUAUAGCG [JR_Ex2_Sub086] (Eterna round: R97, puzzle: Exclusion 2) | 23.4 |  | 21.9 |  |  | 
AAUAACAGAGGAUAUACUAUUUUAUGUGUUUGUUGUUUUAAACAUGAGGAUCACCCAUGUAGAAGGCUGAAUAA [JMF 18] (puzzle: Exclusion 2) |  |  |  | 20 |  | 
GGGUGACAGUUAGGAUAUCUUAGCACGCCGUAGAGAGAAGGGACAUGAGGAUCACCCAUGUUGUAGUGCCUCCAGCACUGCUAG [Esrasoce] (Eterna round: R96, puzzle: Exclusion NG 1) | 105 | 34 | 66.4 |  |  | 

Sequence | apparent KD of MS2 coat protein (input ligand: FMN 200 uM) [nM] | apparent KD of MS2 coat protein [1] [nM] | apparent KD of MS2 coat protein (input ligand: none) [nM] | apparent KD of MS2 coat protein [2] [nM] | apparent KD of MS2 coat protein [3] [nM] | apparent KD of MS2 coat protein [4] [nM]
AUACGCCAGGUAGGAUAUAGUACGUCGGCAACAUGAGGAUCACCCAUGUGGCCUCGUGUCUGGCACUAGAAGGGCCGAGGCCUU [Raatalave] (Eterna round: R96, puzzle: Exclusion NG 2) | 33.5 | 26.2 | 30.9 |  |  | 
UUGCAGUCGUCAGGAUAUAGUAUUACGGCCAUUUAUAUUUUCAUACAUGAGGAUCACCCAUGUCGCUAGAAGGGAUUAUCGAUU [salish99_ExNG2_r04_101] (Eterna round: R96, puzzle: Exclusion NG 2) | 49.7 | 40.4 | 53.4 |  |  | 
AAUAUACAUGUAGGAUAUCUGCACGUUUAGUGCAGAGAAGGACAUGAGGAUCACCCAUGUAAUUAAGAUCAAUUAUUAAAUAUU [ENG1/3-B2] (Eterna round: R96, puzzle: Exclusion NG 1) | 437 | 39.6 | 63 |  |  | 
AUAAAGUGAGGAUAUCCAAUAUAUGACAUGAGGAUCACCCAUGUUUCCACUCGUACCUCCGGAGAAGGCACAAUUU [Ex5 #63] (Eterna round: R97, puzzle: Exclusion 5) | 24.5 |  | 29.2 |  |  | 
ACAUCACAGCUAGGAUAUAGAUGACAUGAGGAUCACCCAUGUUAUCCCAUGUUGACGGAAACCGACUAGAAGGAGCUACAGAUG [Ex NG2 #7] (Eterna round: R96, puzzle: Exclusion NG 2) | 129 | 41.8 | 47.9 |  |  | 
ACUUAUAGAGGAUAUACAGAAUAUUACAUGAGGAUCACCCAUGUUCUUCAAUGUAUAUUUGUAGAAGGCUAAGGAA [EX-5 Malc#7] (Eterna round: R96, puzzle: Exclusion 5) |  | 46.6 |  |  |  | 
CUCCGGCGUGUAGGAUAUGGUUCCGAUUAGGAUCCAGAAGGACAUGAGGAUCACCCAUGUACAUGUCGUCGGUCGUCACCGGGC [salish99_ExNG1_r04_211] (Eterna round: R96, puzzle: Exclusion NG 1) | 107 | 24.1 | 29.4 |  |  | 
UGAUCUAGGCGAGGAUAUACAUGAGGAUCACCCAUGUAAGCGUGACAUGGAAACAUGUCACGUAUGUAGAAGGCGCCUAGAUCU [MOD ENG2 3.54 by JL] (Eterna round: R96, puzzle: Exclusion NG 2) |  | 8.6 | 13.3 |  |  | 
GAAUUAAUUAAUUAAUAAUACAUGAGGAUCACCCAUGUAGAUCCUACAUACAAGCUUUGUAGCUCGUCUUAUAAUUA [Stov1/3-A2] (Eterna round: R97, puzzle: Sensor, turn-off variant 1) | 330 |  | 480 |  |  | 
AUAUUGAUAGUAAGGAUAUGCGUGUGUGUAGUGAUGCAGAAGGUACAUGAGGAUCACCCAUGUAUUAAUGUGUG [LRO-BmodExc4-10-Oppy's Opus] (Eterna round: R97, puzzle: Brourd's mod of Exclusion 4) | 20.5 |  | 16.7 |  |  | 
GUACUGACAGGAUAUACAUGAGGAUCACCCAUGUCCUUAUGCUGACAAAAGUCAGCAAGUAGAAGGGUCUGUAC [Omei Ex3 Model Bachelor's Dilema v2] (Eterna round: R97, puzzle: Exclusion 3) | 1270 |  | 88.4 |  |  | 
AGAUGGCGAGGAUAUACAUGAGGAUCACCCAUGUGAGAAGAUAAAGUGAGGAAGAAAAGUAGAAGGCGCUGUCA [Mat - Exclusion 3 - Mod of Salish D23] (puzzle: Exclusion 3) |  |  |  | 44.9 | 68.3 | 45.1
AGUCCUGGAGUUAGGAUAUGGCGUAUCGCUGCGCUUCAGAAGGGACUUGAGGAUCACCCAAGUAGCCGUGAGGG [salish99_bmod_ex4_r4_008] (Eterna round: R97, puzzle: Brourd's mod of Exclusion 4) | 81.7 |  | 82.4 |  |  | 
CAGUACAGAGGAUAUACAUGAGGAUCACCCAUGUGUUUCAGCUAGGAGACUAGCGAAAGUAGAAGGCUGUACUU [salish99_ex3_r4_002] (Eterna round: R97, puzzle: Exclusion 3) | 23 |  | 11.3 |  |  | 
AAUUAAUAUCAGGAUAUGACUUUCGAUAUUUAGUCAGAAGGGAUGACAUGAGGAUCACCCAUGUGAUCAAUUAA [JR_Ex6_Sub027] (Eterna round: R97, puzzle: Exclusion 6) | 101 |  | 37.7 |  |  | 
UUGUUGUGUGUAGGAUAUGCAUAUUAUUAUUAUGCAGAAGGACAUGAGGAUCACCCAUGUGUAUUAUUAUUAUAUAUUAUAUAU [Title] (Eterna round: R96, puzzle: Exclusion NG 1) |  | 18.3 |  |  |  | 
UUAUUAUAUGUAGGAUAUGCAUAUUAUUAUUAUGCAGAAGGACAUGAGGAUCACCCAUGUAUAUUAUUAUUAUAUGUUAUAUAU [Title] (Eterna round: R96, puzzle: Exclusion NG 1) |  | 20.9 |  |  |  | 
